Laboratory results as given in patent US7754855.

Molecular target: rabbit GH receptor (rabbit) (UniProt P19941)
Assay: cell-based or functional assay

Sequence of UniProt P19941 (P19941 19-638): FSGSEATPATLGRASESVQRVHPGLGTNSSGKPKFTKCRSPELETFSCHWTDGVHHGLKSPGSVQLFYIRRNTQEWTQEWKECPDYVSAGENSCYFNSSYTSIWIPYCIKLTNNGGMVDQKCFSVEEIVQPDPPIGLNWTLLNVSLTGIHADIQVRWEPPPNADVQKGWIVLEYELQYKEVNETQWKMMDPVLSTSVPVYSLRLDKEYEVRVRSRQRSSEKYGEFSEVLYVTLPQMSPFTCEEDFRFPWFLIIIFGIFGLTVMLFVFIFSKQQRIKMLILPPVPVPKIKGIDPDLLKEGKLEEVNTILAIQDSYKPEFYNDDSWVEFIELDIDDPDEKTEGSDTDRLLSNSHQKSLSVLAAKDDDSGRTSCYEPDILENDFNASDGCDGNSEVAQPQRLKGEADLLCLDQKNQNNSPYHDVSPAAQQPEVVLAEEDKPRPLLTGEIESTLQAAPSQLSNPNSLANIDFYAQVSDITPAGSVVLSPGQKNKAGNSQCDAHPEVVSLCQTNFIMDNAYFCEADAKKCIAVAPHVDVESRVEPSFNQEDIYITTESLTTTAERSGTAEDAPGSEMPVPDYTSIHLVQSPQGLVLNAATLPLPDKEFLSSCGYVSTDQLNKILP

Mean EC50 (nM), proliferation of GH-R4 cells: 0.036 nM
Mean EC50 (ng/ml), proliferation of GH-R4 cells: 0.8 ng/mL
Substance: human pituitary GH standard (from UniProt P01241 27-217) (ligand)
